Square brackets hold non-standard residues; d marks the D form. Ends that are not written are not given here. Cit = NC(=O)NCCC[C@H](N)C(=O)O

Assay [1] addresses T1, purified HLA-DRB1*1101 molecule (human).
T1 construct: Purified MHC class II molecule
As to the kind of experiment: peptide competition assay on purified MHC class II. From the text: (§1) Results are expressed as the inverse of the IC₅₀ values measured in nM.

Assay [2] has as its target T2, purified HLA-DRB1*0802 molecule (human).
T2 construct: Purified MHC class II molecule
Nature of the assay: peptide competition assay on purified MHC class II.
Description: as §1

Assay [3] concerns the target T3, purified HLA-DRB1*1302 molecule (human).
T3 construct: Purified MHC class II molecule
As to the kind of experiment: peptide competition assay on purified MHC class II.
Description: as §1

The target of assay [4] is T4, purified HLA-DRB1*0301 molecule (human).
T4 construct: Purified MHC class II molecule
Nature of the assay: peptide competition assay on purified MHC class II.
Description: as §1

Assay [5] deals with T5, purified HLA-DRB1*0101 molecule (human).
T5 construct: Purified MHC class II molecule
Nature of the assay: peptide competition assay, displacement of radio-labelled peptide probe from purified MHC class II.
Description: as §1

Assay [6] addresses T6, purified HLA-DRB1*0404 molecule (human).
T6 construct: Purified MHC class II molecule
Described as above.
Description: as §1

Assay [7] addresses T7, purified HLA-DRB1*0401 molecule (human).
T7 construct: Purified MHC class II molecule
The description is as above.
Description: as §1

B1: Vim 65-77, human vimentin peptide 65-77 (peptide)
peptide: SAVRARSSVPGVR
notes: Synthetic peptide (Genemed Synthesis); also called Vimentin 65-77; unmodified vimentin peptide
Take B1: the binding result in assay [1], in assay [2], in assay [3] and in assay [4] was “binds” in each case.

B2: Vim R70Cit, altered human vimentin peptide 65-77 (peptide)
peptide: SAVRA[Cit]SSVPGVR
notes: Synthetic peptide; also called Vimentin R70Cit; citrulline containing vimentin peptide
Regarding B2, the “fold higher affinity compared to the unmodified peptide (Vim 65-77)” value in assay [5] is 100 fold; in assay [6] it was 20 fold; in assay [7], 90 fold.
